Results on one molecule are retold here after paper PMC10983868 (bioRxiv, 2025).

Assay [1] deals with Clostridium difficile toxin B (TcdB) (Clostridium difficile, UniProt P18177). The assay is described as follows: flow cytometry on cells. In general terms: In flow cytometry, cells or beads pass a laser one at a time.
In assay [2] the target is soluble biotinylated TcdB fragment (1401-1616) (Clostridioides difficile VP10463, UniProt P18177, biotin). The experiment in a line: flow cytometry on cells.
soluble biotinylated TcdB fragment (1401-1616), sequence (P18177 1401-1616): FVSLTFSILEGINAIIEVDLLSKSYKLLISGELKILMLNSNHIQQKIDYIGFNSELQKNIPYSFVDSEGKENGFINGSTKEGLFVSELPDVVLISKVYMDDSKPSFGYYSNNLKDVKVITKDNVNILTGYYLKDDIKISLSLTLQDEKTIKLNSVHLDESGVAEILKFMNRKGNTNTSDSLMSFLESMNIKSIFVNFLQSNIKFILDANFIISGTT

Clostridium difficile toxin B (TcdB), sequence (P18177 whole entry, the tested form may be a part): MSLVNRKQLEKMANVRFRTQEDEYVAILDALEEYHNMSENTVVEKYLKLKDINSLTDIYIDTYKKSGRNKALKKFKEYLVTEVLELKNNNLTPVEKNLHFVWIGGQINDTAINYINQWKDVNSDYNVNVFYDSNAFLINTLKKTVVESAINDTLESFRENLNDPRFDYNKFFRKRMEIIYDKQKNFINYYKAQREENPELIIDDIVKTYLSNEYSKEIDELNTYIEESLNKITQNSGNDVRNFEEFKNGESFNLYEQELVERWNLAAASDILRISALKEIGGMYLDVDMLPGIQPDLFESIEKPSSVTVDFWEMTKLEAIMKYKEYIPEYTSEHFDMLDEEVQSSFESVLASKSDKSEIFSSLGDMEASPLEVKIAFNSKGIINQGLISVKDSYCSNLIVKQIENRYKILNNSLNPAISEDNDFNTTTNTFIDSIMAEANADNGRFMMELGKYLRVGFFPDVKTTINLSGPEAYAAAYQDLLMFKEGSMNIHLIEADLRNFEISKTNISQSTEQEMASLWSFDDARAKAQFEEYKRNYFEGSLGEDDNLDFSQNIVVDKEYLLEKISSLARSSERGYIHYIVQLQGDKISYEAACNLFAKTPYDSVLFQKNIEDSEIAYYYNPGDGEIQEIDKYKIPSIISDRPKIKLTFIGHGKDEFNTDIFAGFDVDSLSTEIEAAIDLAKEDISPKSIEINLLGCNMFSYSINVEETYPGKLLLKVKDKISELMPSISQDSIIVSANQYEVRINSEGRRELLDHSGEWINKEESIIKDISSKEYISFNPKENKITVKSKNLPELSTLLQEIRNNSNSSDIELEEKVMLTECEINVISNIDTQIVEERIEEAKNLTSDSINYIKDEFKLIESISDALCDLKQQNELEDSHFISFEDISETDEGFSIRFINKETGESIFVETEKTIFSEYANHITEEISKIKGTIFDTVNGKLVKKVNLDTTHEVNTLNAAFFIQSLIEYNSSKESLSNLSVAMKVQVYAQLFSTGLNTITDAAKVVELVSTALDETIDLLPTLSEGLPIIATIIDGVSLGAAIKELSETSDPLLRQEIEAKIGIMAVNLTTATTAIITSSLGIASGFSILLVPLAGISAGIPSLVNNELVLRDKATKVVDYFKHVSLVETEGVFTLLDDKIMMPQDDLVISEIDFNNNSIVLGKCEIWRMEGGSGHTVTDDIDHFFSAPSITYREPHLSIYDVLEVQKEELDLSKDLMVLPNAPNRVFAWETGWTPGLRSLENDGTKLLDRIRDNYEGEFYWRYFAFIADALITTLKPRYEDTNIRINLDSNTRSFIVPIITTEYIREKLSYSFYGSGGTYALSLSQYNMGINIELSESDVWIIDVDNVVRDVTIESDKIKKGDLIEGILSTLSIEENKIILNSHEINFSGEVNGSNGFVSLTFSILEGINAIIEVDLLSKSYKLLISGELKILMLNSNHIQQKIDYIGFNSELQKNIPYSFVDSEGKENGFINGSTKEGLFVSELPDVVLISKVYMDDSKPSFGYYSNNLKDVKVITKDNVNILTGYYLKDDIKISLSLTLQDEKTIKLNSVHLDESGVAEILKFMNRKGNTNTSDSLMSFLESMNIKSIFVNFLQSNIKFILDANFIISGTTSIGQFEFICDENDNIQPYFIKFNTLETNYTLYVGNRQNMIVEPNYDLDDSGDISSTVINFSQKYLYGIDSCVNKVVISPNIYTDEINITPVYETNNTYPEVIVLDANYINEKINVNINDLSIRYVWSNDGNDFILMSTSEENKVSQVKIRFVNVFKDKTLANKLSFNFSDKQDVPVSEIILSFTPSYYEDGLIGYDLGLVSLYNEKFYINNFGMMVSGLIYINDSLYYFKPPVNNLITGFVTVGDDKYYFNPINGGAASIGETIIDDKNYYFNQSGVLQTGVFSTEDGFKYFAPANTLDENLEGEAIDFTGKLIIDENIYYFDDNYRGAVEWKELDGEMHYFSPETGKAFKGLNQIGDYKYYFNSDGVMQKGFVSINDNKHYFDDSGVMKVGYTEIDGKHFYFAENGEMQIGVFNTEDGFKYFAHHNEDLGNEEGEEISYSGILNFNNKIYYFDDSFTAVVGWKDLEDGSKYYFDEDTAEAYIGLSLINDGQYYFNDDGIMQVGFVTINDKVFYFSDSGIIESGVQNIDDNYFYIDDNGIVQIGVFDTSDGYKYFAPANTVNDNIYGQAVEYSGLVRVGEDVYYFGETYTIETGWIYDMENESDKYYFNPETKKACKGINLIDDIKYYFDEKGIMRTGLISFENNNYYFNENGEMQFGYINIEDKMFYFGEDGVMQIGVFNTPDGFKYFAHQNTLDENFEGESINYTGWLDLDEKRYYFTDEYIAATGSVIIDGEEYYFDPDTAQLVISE

B1: scFv4-C-Myc construct displayed on yeast (scFv, V domains shown)
VH: EVQLVESGGGLVQPGGSLRLSCAASGFDLKEKYIHWVRQAPGKGLEWVARINVKTGSTRYADSVKGRFTISADTSKNTAYLQMNSLRAEDTAVYYCSRENRFGALTVWGQGTLVTVSS
VL: DIQMTQSPSSLSASVGDRVTITCTTSSYVPMLVSWYQQKPGKAPKLLIYSSVIRAPGVPSRFSGSRSGTDFTLTISSLQPEDFATYYCSVLQKDGNLVFGQGTKVEIK
On to B1, for which the binding result in assay [1] and in assay [2] was “binds” in each case.
